T1: factor Va, P12259
T1 chain 1: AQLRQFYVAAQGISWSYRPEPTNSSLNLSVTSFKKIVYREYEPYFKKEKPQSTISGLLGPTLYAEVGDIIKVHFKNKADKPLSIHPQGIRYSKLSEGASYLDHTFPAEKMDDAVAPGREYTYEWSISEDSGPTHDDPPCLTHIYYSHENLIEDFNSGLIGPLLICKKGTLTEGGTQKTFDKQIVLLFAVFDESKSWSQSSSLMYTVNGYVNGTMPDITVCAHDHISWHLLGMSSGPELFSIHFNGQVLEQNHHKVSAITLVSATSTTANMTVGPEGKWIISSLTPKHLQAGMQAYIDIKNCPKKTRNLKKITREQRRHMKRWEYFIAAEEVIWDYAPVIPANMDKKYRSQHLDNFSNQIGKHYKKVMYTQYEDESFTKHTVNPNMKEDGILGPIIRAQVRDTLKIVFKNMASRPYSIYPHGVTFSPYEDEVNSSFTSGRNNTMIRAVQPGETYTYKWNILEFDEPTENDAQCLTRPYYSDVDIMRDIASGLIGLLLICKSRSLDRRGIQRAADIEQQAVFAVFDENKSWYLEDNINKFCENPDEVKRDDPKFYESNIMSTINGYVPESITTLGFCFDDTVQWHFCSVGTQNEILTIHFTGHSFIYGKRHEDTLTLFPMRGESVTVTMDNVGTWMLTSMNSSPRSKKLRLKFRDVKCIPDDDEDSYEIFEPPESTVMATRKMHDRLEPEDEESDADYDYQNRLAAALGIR
T1 chain 2: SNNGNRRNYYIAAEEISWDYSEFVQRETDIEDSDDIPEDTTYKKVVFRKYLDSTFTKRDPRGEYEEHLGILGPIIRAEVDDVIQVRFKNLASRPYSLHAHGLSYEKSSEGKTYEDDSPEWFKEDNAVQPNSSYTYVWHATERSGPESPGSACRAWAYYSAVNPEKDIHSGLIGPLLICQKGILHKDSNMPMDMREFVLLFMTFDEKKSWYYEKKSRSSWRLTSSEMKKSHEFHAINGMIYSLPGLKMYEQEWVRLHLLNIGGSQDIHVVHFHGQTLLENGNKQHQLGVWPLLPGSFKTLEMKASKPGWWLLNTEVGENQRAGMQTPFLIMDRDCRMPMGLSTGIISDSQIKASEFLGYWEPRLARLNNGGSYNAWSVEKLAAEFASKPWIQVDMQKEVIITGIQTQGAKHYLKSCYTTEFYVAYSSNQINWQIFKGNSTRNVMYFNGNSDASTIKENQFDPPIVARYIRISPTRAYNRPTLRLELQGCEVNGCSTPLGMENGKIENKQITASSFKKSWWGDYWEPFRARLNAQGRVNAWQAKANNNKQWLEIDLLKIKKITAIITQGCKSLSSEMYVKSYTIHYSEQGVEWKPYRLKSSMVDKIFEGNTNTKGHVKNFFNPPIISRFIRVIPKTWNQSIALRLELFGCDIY

B1: recombinant factor Xa variant Val17→Ala (protein)
chain 1: ANSFLEEMKKGHLERECMEETCSYEEAREVFEDSDKTNEFWNKYKDGDQCETSPCQNQGKCKDGLGEYTCTCLEGFEGKNCELFTRKLCSLDNGDCDQFCHEEQNSVVCSCARGYTLADNGKACIPTGPYPCGKQTLER
chain 2: IAGGQECKDGECPWQALLINEENEGFCGGTILSEFYILTAAHCLYQAKRFKVRVGDRNTEQEEGGEAVHEVEVVIKHNRFTKETYDFDIAVLRLKTPITFRMNVAPACLPERDWAESTLMTQKTGIVSGFGRTHEKGRQSTRLKMLEVPYVDRNSCKLSSSFIITQNMFCAGYDTKQEDACQGDSGGPHVTRFKDTYFVTGIVSWGEGCARKGKYGIYTKVTAFLKWIDRSMKTRGLPKAKSHAPEVITSSPLK

Assays:
factor Va = factor Va (UniProt P12259)
factor Va, P12259 = molecular target: T1, factor Va, P12259

Row | Molecule | Km for peptidyl substrates after assembly into prothrombinase (factor Va) | Km for peptidyl substrates after assembly into prothrombinase (factor Va, P12259)
1 | recombinant factor Xa variant Ile16→Gly | even the Km value for I235G was almost completely restored (3-fold increased compared to wild-type FXa) when assembled in prothrombinase | –
2 | B1 | – | the assembly of FXaI235L and FXaV236A into prothrombinase almost completely restored the Km for peptidyl substrates

— patent US8383386
